B1: TPR t1 (parent)
chain: GACCAAUCUGCCCUCAGAGCUCGAGAACAUCUUCGGAUGCAGAGGAGGCAGGCUUCGGUGGCGCGAUAGCGCCAACGUCCUCAACCUCCAAUGCAUCCCACCACAUGAUGAUGCCUGAAGAGCCUUGGUUUUUUG

Variants of: B1
Assay: polymerase ribozyme fitness, log enrichment relative to wild type (log ratio); higher = more active; in vitro selection for triplet polymerase activity
Method in brief: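 Fitness measures genotype enrichment against wild-type enrichment on a logarithmic scale, with inverse-variance-weighted averaging of replicates. The logarithm is base 2, and genotypes were kept only with ≥10 input reads and ≥1 read per output in Illumina sequencing. The sequenced libraries came from one triplicate in vitro selection round, including frozen incubation at −7 °C, of PCR-built, transcribed mutant libraries of each subunit of a heterodimeric triplet polymerase ribozyme.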

Going from C3G G71C A90U A95U U112A to C12U G57A, the “polymerase ribozyme fitness (log ratio)” value rises from -3.23 to -0.879.

First: C85U U116A C123U U129A
Second: C72G U132C
The “polymerase ribozyme fitness (log ratio)” value of the first is lower: -5.12 for the first, -0.428 for the second.

Compared with G63C G107A, U78C C115U is higher in “polymerase ribozyme fitness (log ratio)” value: -4.87 for the first, 0.0691 for the second.

Compared with C88G C97A C104U, G61C U92C is higher in “polymerase ribozyme fitness (log ratio)” value: -5.23 for the first, -2.59 for the second.

First: G42A G44U C73G U112A G122A
Second: A26U C72G G120A
The “polymerase ribozyme fitness (log ratio)” value of the first is lower: -3.21 for the first, -2.51 for the second.

Compared with C40U U59A U116A, C12G C115U U133A is higher in “polymerase ribozyme fitness (log ratio)” value: -4.02 for the first, -0.348 for the second.

Going from A16U A50G G58A G60A C64U to U9C A41G G45U C82U C85G, the “polymerase ribozyme fitness (log ratio)” value falls from -3.73 to -4.04.

First: U54A U106A C124A U129C
Second: A16C C56A C97G
The “polymerase ribozyme fitness (log ratio)” value of the first is higher: 0.971 for the first, -5.42 for the second.

First: G57U G63C A95C U112A G117A
Second: C56G U109C
The “polymerase ribozyme fitness (log ratio)” value of the first is lower: -4.01 for the first, -3.23 for the second.

Compared with G51C C56U G110A, C62U G113A is higher in “polymerase ribozyme fitness (log ratio)” value: -5.23 for the first, -0.93 for the second.

First: A41U C53A G58A
Second: C3G A16U U38G
The “polymerase ribozyme fitness (log ratio)” value of the first is higher: -1.32 for the first, -4.66 for the second.

Compared with C12G C40G G63A, U9C C49A C85U G120C is higher in “polymerase ribozyme fitness (log ratio)” value: -1.01 for the first, 1.08 for the second.

Going from A5U U38A G42U C72U A74U C85A C101A to C28A A41U C53G C104G G110A, the “polymerase ribozyme fitness (log ratio)” value falls from -5.64 to -6.89.

Compared with C72G C104U, G35U C64G C97G G117C is lower in “polymerase ribozyme fitness (log ratio)” value: -0.348 for the first, -7.13 for the second.

Going from C8G C12G U55G G61U to G60A C104A G113U, the “polymerase ribozyme fitness (log ratio)” value falls from 0.571 to -5.38.

First: G57A U106G A121C
Second: C34A C98U G122U
The “polymerase ribozyme fitness (log ratio)” value of the first is higher: -0.75 for the first, -2.46 for the second.

Going from A26C to A26U, the “polymerase ribozyme fitness (log ratio)” value rises from -6.07 to -2.98.

First: C8U A18U C20A A95U G117A
Second: A27G A41U C64U
The “polymerase ribozyme fitness (log ratio)” value of the first is lower: -3.83 for the first, -3.32 for the second.

Going from C11A C13U A41U to C22U C70U G117C, the “polymerase ribozyme fitness (log ratio)” value falls from -2.84 to -6.77.

First: C8A G36U G69A C88A C115U U131G
Second: G117U
The “polymerase ribozyme fitness (log ratio)” value of the first is lower: -6.31 for the first, -2.21 for the second.

Going from C79A C89A A118G to C56U G127A, the “polymerase ribozyme fitness (log ratio)” value rises from -3.86 to -1.2.

First: A27U C73A U129C
Second: G10A C62A U96A
The “polymerase ribozyme fitness (log ratio)” value of the first is lower: -3.27 for the first, -2.02 for the second.

Compared with U7A U106A, C34G G47U U55G G61C G63C C80U is lower in “polymerase ribozyme fitness (log ratio)” value: 0.182 for the first, -7.69 for the second.

U54A U92C G128A and C28G C53A C72A are within 0.2 log units of each other in “polymerase ribozyme fitness (log ratio)” value: -3.16 for the first, -3.19 for the second.

Compared with C62G C73U A83G, G35C A50G C53G U67G C124A G135U is lower in “polymerase ribozyme fitness (log ratio)” value: -4.25 for the first, -6.69 for the second.

Compared with C20U C73A U81A U96A A121U C124U U134A G135U, A111C G127A is lower in “polymerase ribozyme fitness (log ratio)” value: -0.843 for the first, -2.45 for the second.

First: A5C U106A
Second: C11A U106A G110U
The “polymerase ribozyme fitness (log ratio)” value of the first is higher: -0.572 for the first, -1.4 for the second.

Going from C4G G44C to U9A G122A, the “polymerase ribozyme fitness (log ratio)” value rises from -2.96 to 0.926.

Going from C12A G58A G61C C79U C82A A83C C114U to G36C C49A C53A G61C C76U A119G, the “polymerase ribozyme fitness (log ratio)” value falls from -5.31 to -6.33.

Going from A6U C15G U59G to C56U C124A, the “polymerase ribozyme fitness (log ratio)” value rises from -2.42 to 1.7.

Going from G39U G113U to C8U C11U C70U C73U C102A, the “polymerase ribozyme fitness (log ratio)” value rises from -3.59 to -3.01.

G39C U78A C94A C123A C124A G128A and C40U A119G U126G G127U are within 0.2 log units of each other in “polymerase ribozyme fitness (log ratio)” value: -0.0279 for the first, -0.212 for the second.

Compared with A18C C20U C114A, G52U C98U is lower in “polymerase ribozyme fitness (log ratio)” value: 0.845 for the first, -2.89 for the second.

U59G G110U G135U and C11G G45U are within 0.2 log units of each other in “polymerase ribozyme fitness (log ratio)” value: -2.85 for the first, -2.69 for the second.

Going from U9C G69C to C8A A74U, the “polymerase ribozyme fitness (log ratio)” value rises from -0.746 to -0.0501.

Going from A5G G45A G69U C104A to G10U C13A A16U G110C U125A, the “polymerase ribozyme fitness (log ratio)” value falls from -1.05 to -6.47.

Compared with G36C U78C, C56U is higher in “polymerase ribozyme fitness (log ratio)” value: -1.49 for the first, 0.0734 for the second.

Compared with C70A G113C, G51U C79A U87C U106A is higher in “polymerase ribozyme fitness (log ratio)” value: -3.23 for the first, -2.68 for the second.

First: C56U U92G
Second: A2G U9G U21C G128A
The “polymerase ribozyme fitness (log ratio)” value of the first is higher: -2.12 for the first, -4.35 for the second.

Going from A43U U92G C124U to A5U C73A G122A U126G, the “polymerase ribozyme fitness (log ratio)” value falls from -0.53 to -2.29.

Going from A6G G51A to A5C A37C G60C C79U C123A, the “polymerase ribozyme fitness (log ratio)” value rises from -2.27 to -0.023.

With G52U C76A A105U the “polymerase ribozyme fitness (log ratio)” value was -3.02.
